# From PMC2806001
# T1: Peroxiredoxin 1 (Prx1) WT, recombinant (mouse), P35700
# T1 chain: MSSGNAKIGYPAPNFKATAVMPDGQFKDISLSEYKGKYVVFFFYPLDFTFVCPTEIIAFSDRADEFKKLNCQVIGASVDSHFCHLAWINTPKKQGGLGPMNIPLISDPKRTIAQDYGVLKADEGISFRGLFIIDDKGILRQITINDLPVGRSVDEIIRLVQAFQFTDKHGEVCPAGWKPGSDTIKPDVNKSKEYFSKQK
# B1: Peroxiredoxin 1 (Prx1) WT, recombinant, P35700 1-199 (enzyme)
# chain: MSSGNAKIGYPAPNFKATAVMPDGQFKDISLSEYKGKYVVFFFYPLDFTFVCPTEIIAFSDRADEFKKLNCQVIGASVDSHFCHLAWINTPKKQGGLGPMNIPLISDPKRTIAQDYGVLKADEGISFRGLFIIDDKGILRQITINDLPVGRSVDEIIRLVQAFQFTDKHGEVCPAGWKPGSDTIKPDVNKSKEYFSKQK
# Target: T1, Peroxiredoxin 1 (Prx1) WT, recombinant …
# Assay: native gel or EMSA; BN-PAGE of purified recombinant proteins incubated for 1 hour at room temperature (20 μg p66CH2CB with 40 μg Prx1 WT or 20 μg Prx1-Cys83Ser); bands cut out and separated in a second, denaturing SDS-PAGE dimension
# Details: remark: other sources report otherwise
binder,measurement,value
B1,stoichiometry N,10
